Results reported in US20220010021A1 (Sanofi, published 2022).
Positions count from the first letter of the chain named.

B1: human FGF21 (ligand)
chain: GHPIPDSSPLLQFGGQVRQRYLYTDDAQQTEAHLEIREDGTVGGAADQSPESLLQLKALKPGVIQILGVKTSRFLCQRPDGALYGSLHFDPEACSFRELLLEDGYNVYQSEAHGLPLHLPGNKSPHRDPAPRGPARFLPLPGLPPAPPEPPGILAPQPPDVGSSDPLSMVGPSQGRSPSYAS
B2: Ab0181 (antibody, IgG4, V domains shown)
VH: not shown
VL: SYVLTQPPSVSVAPGQTARITCGGNNIGSESVHWYQQKPGQAPVLVVYYDSDRPSGIPERFSGSNSGNTATLTISRVEAGDEADYYCQVWDGNSDHVVFGGGTKLTVLG
B3: Ab0224 (antibody, IgG4, V domains shown)
VH: not shown
VL: B2 VL with Y49A
B4: Ab0330 (antibody, IgG4, V domains shown)
VH: QVTLKESGPVLVKPTETLTLTCTVSGFSLNNARVGVSWIRQPPGKALEWLAHIFSNDEKSYSTSLKSRLTISKDTSKSQVVLTMTNMDPVDTATYYCARSVVTGGYYYEGMDVWGQGTTVTVSS
VL: B2 VL with N25S, Y49S, D50E, D91A, N93E
B5: Ab0350 (antibody, IgG4, V domains shown)
VH: B4 VH
VL: B2 VL with N25S, Y49E, D50E, D91A, N93S
B6: Ab0386 (antibody, IgG4, V domains shown)
VH: B4 VH with F54W
VL: B2 VL with Y49D, W90F, D95S
B7: Ab0415 (antibody, IgG4, V domains shown)
VH: B4 VH
VL: B2 VL with N25S, D50E, D91A, N93E
B8: Ab0192 (antibody, IgG4, V domains shown)
VH: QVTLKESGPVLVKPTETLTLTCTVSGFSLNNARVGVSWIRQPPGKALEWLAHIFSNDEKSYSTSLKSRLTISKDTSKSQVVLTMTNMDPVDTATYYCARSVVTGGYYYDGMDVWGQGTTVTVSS
VL: B2 VL with Y49D, D95E
B9: Ab0199 (antibody, IgG4, V domains shown)
VH: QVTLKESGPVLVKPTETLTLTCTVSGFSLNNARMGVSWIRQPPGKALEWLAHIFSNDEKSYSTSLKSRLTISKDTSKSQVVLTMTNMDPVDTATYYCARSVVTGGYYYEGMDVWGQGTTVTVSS
VL: B2 VL with Y49D, D95E
B10: Ab0206 (antibody, IgG4, V domains shown)
VH: B4 VH
VL: B2 VL with Y49D, D95E
B11: Ab0209 (antibody, IgG4, V domains shown)
VH: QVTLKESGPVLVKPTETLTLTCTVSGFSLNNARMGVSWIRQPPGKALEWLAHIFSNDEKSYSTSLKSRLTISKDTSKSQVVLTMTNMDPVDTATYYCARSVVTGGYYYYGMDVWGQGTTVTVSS
VL: B2 VL
B12: Ab0210 (antibody, IgG4, V domains shown)
VH: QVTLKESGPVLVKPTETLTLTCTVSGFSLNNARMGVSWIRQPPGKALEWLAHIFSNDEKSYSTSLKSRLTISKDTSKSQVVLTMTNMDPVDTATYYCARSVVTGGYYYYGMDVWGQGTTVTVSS
VL: B2 VL with Y49D, D50E
B13: Ab0211 (antibody, IgG4, V domains shown)
VH: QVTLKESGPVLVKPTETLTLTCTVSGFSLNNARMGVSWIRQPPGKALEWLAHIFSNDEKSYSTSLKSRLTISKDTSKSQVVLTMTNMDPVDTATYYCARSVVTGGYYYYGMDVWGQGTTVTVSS
VL: B2 VL with Y49D, D91T
B14: Ab0213 (antibody, IgG4, V domains shown)
VH: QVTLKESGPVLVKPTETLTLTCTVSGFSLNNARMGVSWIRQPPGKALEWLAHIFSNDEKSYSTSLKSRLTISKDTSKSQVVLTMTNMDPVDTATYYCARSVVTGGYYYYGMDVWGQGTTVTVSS
VL: B2 VL with Y49D, D95E
B15: Ab0220 (antibody, IgG4, V domains shown)
VH: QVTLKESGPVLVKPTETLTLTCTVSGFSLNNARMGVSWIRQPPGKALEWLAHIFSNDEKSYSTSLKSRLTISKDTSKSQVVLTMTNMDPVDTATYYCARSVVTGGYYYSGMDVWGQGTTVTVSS
VL: B2 VL with Y49D, D95E
B16: Ab0185 (antibody, IgG4, V domains shown)
VH: not shown
VL: B2 VL with Y49D, D95E
B17: Ab0237 (antibody, IgG4, V domains shown)
VH: not shown
VL: B2 VL with Y49D, D95A
B18: Ab0238 (antibody, IgG4, V domains shown)
VH: not shown
VL: B2 VL with Y49D, D95S
B19: Ab0313 (antibody, IgG4, V domains shown)
VH: B4 VH
VL: B2 VL with Y49D, D91T, N93E
B20: Ab0299 (antibody, IgG4, V domains shown)
VH: B4 VH
VL: B2 VL with N25S, Y49D, D91T
B21: Ab0300 (antibody, IgG4, V domains shown)
VH: B4 VH
VL: B2 VL with D91T
B22: Ab0301 (antibody, IgG4, V domains shown)
VH: B4 VH
VL: B2 VL with N25S, D91T
B23: Ab0302 (antibody, IgG4, V domains shown)
VH: B4 VH
VL: B2 VL with Y49D, D50E, D91T
B24: Ab0303 (antibody, IgG4, V domains shown)
VH: B4 VH
VL: B2 VL with N25S, Y49D, D50E, D91T
B25: Ab0304 (antibody, IgG4, V domains shown)
VH: B4 VH
VL: B2 VL with D50E, D91T
B26: Ab0305 (antibody, IgG4, V domains shown)
VH: B4 VH
VL: B2 VL with N25S, D50E, D91T
B27: Ab0315 (antibody, IgG4, V domains shown)
VH: B4 VH
VL: B2 VL with D91T, N93E
B28: Ab0316 (antibody, IgG4, V domains shown)
VH: B4 VH
VL: B2 VL with N25S, D91T, N93E
B29: Ab0317 (antibody, IgG4, V domains shown)
VH: B4 VH
VL: B2 VL with Y49D, D50E, D91T, N93E
B30: Ab0318 (antibody, IgG4, V domains shown)
VH: B4 VH
VL: B2 VL with N25S, Y49D, D50E, D91T, N93E
B31: Ab0319 (antibody, IgG4, V domains shown)
VH: B4 VH
VL: B2 VL with D50E, D91T, N93E
B32: Ab0320 (antibody, IgG4, V domains shown)
VH: B4 VH
VL: B2 VL with N25S, D50E, D91T, N93E
B33: Ab0395 (antibody, IgG4, V domains shown)
VH: B4 VH with F54W
VL: SYVLTQPPSVSVAPGQTARITCGGNNIGSESVHWYQQKPGQAPVLVVDDSDRPSGIPERFSGSNSGNTATLTISRVEAGDEADYYCQVFDGNSAHVVFGGGTKLTVLG
B34: Ab0371 (antibody, IgG4, V domains shown)
VH: B4 VH with H52W
VL: B33 VL with F89H, A94E
B35: Ab0372 (antibody, IgG4, V domains shown)
VH: B4 VH with H52W
VL: B33 VL with S1C, F89H, S93C, A94E
B36: Ab0373 (antibody, IgG4, V domains shown)
VH: B4 VH with H52W
VL: B33 VL with F89H, S93C, A94E, H95C
B37: Ab0374 (antibody, IgG4, V domains shown)
VH: B4 VH with F54W
VL: B33 VL with A94E
B38: Ab0375 (antibody, IgG4, V domains shown)
VH: B4 VH with F54W
VL: B33 VL with S1C, S93C, A94E
B39: Ab0376 (antibody, IgG4, V domains shown)
VH: B4 VH with F54W
VL: B33 VL with S93C, A94E, H95C
B40: Ab0377 (antibody, IgG4, V domains shown)
VH: B4 VH with F54W
VL: B33 VL with A94V
B41: Ab0378 (antibody, IgG4, V domains shown)
VH: B4 VH with H52S, F54W
VL: B33 VL with A94V
B42: Ab0379 (antibody, IgG4, V domains shown)
VH: B4 VH with F54W
VL: B33 VL with S1C, S93C, A94V
B43: Ab0380 (antibody, IgG4, V domains shown)
VH: B4 VH with H52S, F54W
VL: B33 VL with S1C, S93C, A94V
B44: Ab0381 (antibody, IgG4, V domains shown)
VH: B4 VH with F54W
VL: B33 VL with S93C, A94V, H95C

Target: human FGFR1c + KLB receptor complex on HEK293 iLite FGF21 reporter cells (human, UniProt P11362 22-822; Q86Z14 1-1044)
Assay: cell-based or functional assay

Sequence of human FGFR1c + KLB receptor complex on HEK293 iLite FGF21 reporter cells (P11362 22-822, chain 1 of 2): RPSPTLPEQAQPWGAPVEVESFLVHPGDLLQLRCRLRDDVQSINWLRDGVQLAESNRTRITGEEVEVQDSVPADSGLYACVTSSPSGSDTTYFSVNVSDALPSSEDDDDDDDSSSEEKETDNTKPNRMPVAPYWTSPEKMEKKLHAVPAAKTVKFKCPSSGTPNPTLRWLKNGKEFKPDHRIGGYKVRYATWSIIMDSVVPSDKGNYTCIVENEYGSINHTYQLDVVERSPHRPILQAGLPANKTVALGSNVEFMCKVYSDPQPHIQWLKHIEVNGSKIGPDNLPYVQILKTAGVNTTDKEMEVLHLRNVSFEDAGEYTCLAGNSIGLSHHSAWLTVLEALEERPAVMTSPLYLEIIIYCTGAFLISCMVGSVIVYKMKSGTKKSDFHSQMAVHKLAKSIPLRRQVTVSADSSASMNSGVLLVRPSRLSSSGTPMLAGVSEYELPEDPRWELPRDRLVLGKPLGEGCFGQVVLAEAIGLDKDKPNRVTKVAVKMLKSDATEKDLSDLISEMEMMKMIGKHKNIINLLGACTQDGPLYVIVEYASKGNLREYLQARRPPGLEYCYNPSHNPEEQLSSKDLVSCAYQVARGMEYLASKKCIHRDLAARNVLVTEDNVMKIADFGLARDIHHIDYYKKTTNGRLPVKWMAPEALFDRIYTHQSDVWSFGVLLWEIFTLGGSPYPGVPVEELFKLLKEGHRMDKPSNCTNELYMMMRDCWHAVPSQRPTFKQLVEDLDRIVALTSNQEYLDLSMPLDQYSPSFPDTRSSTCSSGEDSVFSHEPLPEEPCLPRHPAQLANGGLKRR
Sequence of human FGFR1c + KLB receptor complex on HEK293 iLite FGF21 reporter cells (Q86Z14 whole entry, chain 2 of 2): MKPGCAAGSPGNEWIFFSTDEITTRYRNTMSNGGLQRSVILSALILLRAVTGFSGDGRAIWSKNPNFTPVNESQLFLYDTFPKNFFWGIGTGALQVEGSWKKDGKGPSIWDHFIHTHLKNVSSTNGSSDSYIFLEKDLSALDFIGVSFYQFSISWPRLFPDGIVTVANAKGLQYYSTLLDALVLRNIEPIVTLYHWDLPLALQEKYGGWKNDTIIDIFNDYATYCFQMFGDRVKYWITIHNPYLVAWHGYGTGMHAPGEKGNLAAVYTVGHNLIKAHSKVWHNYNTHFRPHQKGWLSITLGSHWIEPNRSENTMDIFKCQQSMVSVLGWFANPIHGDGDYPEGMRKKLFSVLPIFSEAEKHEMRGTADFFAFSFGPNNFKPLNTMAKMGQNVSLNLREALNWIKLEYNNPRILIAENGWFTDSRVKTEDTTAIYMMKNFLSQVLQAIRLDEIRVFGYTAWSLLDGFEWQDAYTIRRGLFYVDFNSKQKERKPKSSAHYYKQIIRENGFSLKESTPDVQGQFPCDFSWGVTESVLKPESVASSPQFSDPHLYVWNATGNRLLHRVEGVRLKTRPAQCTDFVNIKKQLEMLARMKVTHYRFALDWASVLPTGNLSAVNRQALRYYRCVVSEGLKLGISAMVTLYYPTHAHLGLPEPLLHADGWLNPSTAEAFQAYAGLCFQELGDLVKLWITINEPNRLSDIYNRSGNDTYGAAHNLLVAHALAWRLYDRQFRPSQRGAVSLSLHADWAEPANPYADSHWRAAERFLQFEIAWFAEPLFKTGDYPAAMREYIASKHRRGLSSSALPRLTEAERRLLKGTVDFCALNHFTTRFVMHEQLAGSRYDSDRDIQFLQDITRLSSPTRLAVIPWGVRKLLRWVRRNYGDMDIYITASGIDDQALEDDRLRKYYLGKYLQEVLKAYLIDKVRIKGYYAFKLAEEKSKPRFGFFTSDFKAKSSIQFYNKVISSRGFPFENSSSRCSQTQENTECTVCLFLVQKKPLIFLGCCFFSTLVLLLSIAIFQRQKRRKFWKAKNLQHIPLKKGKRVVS

| Binder | EC50 [nM] | Emax [%] |
| --- | --- | --- |
| B1 | 0.35 | 4000 |
| B2 | 0.03 | 2110 |
| B3 | 0.05 | 2260 |
| B4 | 0.15 | 932 |
| B5 | 1.46 | 493 |
| B6 | > 100 |  |
| B7 | 0.3 | 674 |
| B8 | 3.67 | 1610 |
| B9 | > 100 | 736 |
| B10 | 0.69 | 2640 |
| B11 | 15.3 | 1960 |
| B12 | 5.31 | 2390 |
| B13 | 12 | 1600 |
| B14 | > 100 | 122 |
| B15 | 22.2 | 1190 |
| B16 | 0.06 | 2350 |
| B17 | > 100 | 667 |
| B18 |  | 856 |
| B19 | 0.04 | 1130 |
| B20 | 0.1 | 1240 |
| B21 | 2.63 | 605 |
| B22 | 21.5 | 697 |

| Binder | EC50 [nM] | Emax [%] |
| --- | --- | --- |
| B23 | 3.94 | 795 |
| B24 | 19.2 | 809 |
| B25 | 11.4 | 686 |
| B26 | 208 | 647 |
| B27 | 0.37 | 806 |
| B28 | 0.45 | 730 |
| B29 | 0.17 | 968 |
| B30 | 0.3 | 817 |
| B31 | 0.3 | 698 |
| B32 | 1.29 | 699 |
| B33 | > 100 |  |
| B34 | > 100 |  |
| B35 | > 100 |  |
| B36 | > 100 |  |
| B37 | > 100 |  |
| B38 | > 100 |  |
| B39 | > 100 |  |
| B40 | > 100 |  |
| B41 | > 100 |  |
| B42 | > 100 | 171 |
| B43 | > 100 |  |
| B44 | > 100 |  |
